Source: patent US20160280786A1
Changes are numbered by the printed parent chain.

B1: 4CTLAPMP02A5 (VHH)
VHH: EVQLVESGGGLVQAGGSLRLSCAASGRTNSTTLMGWSRRAPGKEREFVAAISGSGTLTSYADSVKGRFAISRDNAKNTVYLQMNSLKPEDTAIYYCAAGLTSWALIPSRTLTTWGQGTQVTVSS
B2: 4CTLAPMP03C4 (VHH)
VHH: EVQLVESGGGLVQAGGSLRLSCAASGGTFSFYGMGWFRQAPGKEREFVADIRTSAGRTYYADSVKGRFTISRDNAKNTVYLQMNSLKPEDTAVYYCAAEMSGISGWDYWGQGTQVTVSS
B3: 4CTLAPMP11F1 (VHH)
VHH: B2 VHH with R45Q
B4: 4CTLAPMP11E3 (VHH)
VHH: EVQLVESGGGLVEPGGSLRLSCAASGSISSYNVMGWYRQAPGQQRDLVAHIASNGEIMYADSAKGRFTISRDNAKKTVYLQMNSLKPEDTAVYYCKLWVLGNDYWGQGTQVTVSS
B5: 4CTLAPMP12H2 (VHH)
VHH: B4 VHH with G108R
B6: 4CTLAPMP02F2 (VHH)
VHH: EVQLMESGGGLVQTGGSLRLSCAASGRTFSNYTMGWFRQAPGKDREFVAAISRSGSLKAYADSVKGRFTPSRDNAKKMAYLQMNSLKPEDTAVYYCAAAPVPWGTRPSLFPYDSWGQGTQVTVSS
B7: 4CTLAPMP02G2 (VHH)
VHH: B6 VHH with M5V, G8R, A59S, P70I, L109F, P111T
B8: 4CTLAPMP02F4 (VHH)
VHH: B6 VHH with M5V, S56A, L109F
B9: 4CTLAPMP06C10 (VHH)
VHH: EVQLVESGGGLVQAGGSLRLSCAASGRTFSNYTIAYFRQAPGREREFAAAISPHGTLRSFADSVKDRFTISRDNAKNTVWLQMNSLKLEDTAVYYCAADPSGWGLRQHSENEYPYWGLGTQVTVSS
B10: 4CTLAPMP2G9 (VHH)
VHH: EVQLVKSGGQLVQAGGSLRLSCAATGRTYNSYPLGWFRQAPGKEREFVAAISASGTLRAYADSVKGRFTISRDSAKNTVYLQMNNLKPEDTAVYYCARARSVGWRASHHLSDYDNWGQGTQVTVSS

Target: cynomolgus monkey CTLA4 (human CTLA4 cDNA with S13N, I17T and L105M) on stably transfected CHO-K1 cells (human cDNA mutated to the cynomolgus monkey extracellular domain) (UniProt P16410)
Experiment: FACS direct binding titration on CHO cells with cynomolgus CTLA4 (head prints IC50)

Chain of cynomolgus monkey CTLA4 (human CTLA4 cDNA with S13N, I17T and L105M) on stably transfected CHO-K1 cells (human cDNA mutated to the cynomolgus monkey extracellular domain) (P16410 36-223, stated change not applied): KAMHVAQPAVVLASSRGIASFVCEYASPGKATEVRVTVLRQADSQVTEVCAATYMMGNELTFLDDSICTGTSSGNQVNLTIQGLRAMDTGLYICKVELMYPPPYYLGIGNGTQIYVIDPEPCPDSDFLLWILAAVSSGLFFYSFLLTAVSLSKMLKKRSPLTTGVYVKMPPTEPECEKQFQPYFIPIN

IC50 | Binder
7.74 nM | B1
6.73 nM | B2
5.51 nM | B3
4.5 nM | B4
5.65 nM | B5
2.42 nM | B6
2.08 nM | B7
2.36 nM | B8
5.47 nM | B9
2.66 nM | B10
